Laboratory results taken from the supplement of paper PMC12667976.

B1: library; numbered along this chain (parent)
chain: MATDAALRRLLRLHRTEIAVAVDSAFPLLHALADHDVVPEDKFQETLHLKEKEGCPQAFHALLSWLLTQDSTAILDFWRVLFKDYNLERYGRLQPILDSFPKDVDLSQPRKGRKPPAVPKALVPPPRLPTKRKASEEARAAAPAALTPRGTASPGSQLKAKPPKKPESSAEQQRLPLGNGIQTMSASVQRAVAMSSGDVPGARGAVEGILIQQVFESGGSKKCIQVGGEFYTPSKFEDSGSGKNKARSSSGPKPLVRAKGAQGAAPGGGEARLGQQGSVPAPLALPSDPQLHQKNEDECAVCRDGGELICCDGCPRAFHLACLSPPLREIPSGTWRCSSCLQATVQEVQPRAEEPRPQEPPVETPLPPGLRSAGEEVRGPPGEPLAGMDTTLVYKHLPAPPSAAPLPGLDSSALHPLLCVGPEGQQNLAPGARCGVCGDGTDVLRCTHCAAAFHWRCHFPAGTSRPGTGLRCRSCSGDVTPAPVEGVLAPSPARLAPGPAKDDTASHEPALHRDDLESLLSEHTFDGILQWAIQSMARPAAPFPS

Variants of: B1
Assay: AIRE transcriptional activation functional score (insulin promoter-GFP; nonsense median 0, synonymous median 1) (normalised score); higher = higher AIRE activity (more reporter activation)
Details: with insulin promoter-GFP reporter in HEK293
How it was run: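 Using Bxb1 recombinase, codon-optimized NNN-codon libraries for three AIRE regions were inserted into Flp-In T-REx HEK293 landing-pad cells with an insulin core promoter-GFP reporter. After integrants (mCherry+, BFP−) were sorted at day 7 and expanded for 7 days, the top 10% GFP and unselected integrant populations underwent tile-sequencing. Functional scores are wild-type-subtracted enrichments of variants in select over non-select samples. A cutoff of 10 counts per million in non-select applied, and values were rescaled (nonsense median 0, synonymous median 1) and averaged over biological replicates.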

AIRE transcriptional activation functional score: each site, then its substitutions
A352: W 1.31 | P 0.925 | E 0.933 | S 1 | M 1.13 | F 1.38 | T 1.32 | Y 0.899 | K 0.997 | I 1.08 | H 0.902 | L 1.06 | Q 0.697 | V 0.882 | G 0.813 | D 1.08 | R 0.916 | N 1.01 | C 1.1
T364: D 0.191 | M 1.64 | G 0.32 | R 0.983 | W 1.73 | S 0.643 | L 1.22 | Q 0.914 | Y 1.11 | A 0.985 | I 0.829 | H 1.07 | N 0.588 | K 0.737 | F 0.115 | P 0.694 | E 0.981 | V 0.952
R351: L 0.985 | M 1.07 | P 1.02 | C 1.19 | V 0.812 | Q 1.44 | Y 0.693 | T 0.615 | D 0.673 | E 0.835 | N 1.56 | G 1.02 | H 0.73 | F 1.16 | W 0.833 | A 1.34 | K 0.457 | I 0.573 | S 1.01
P355: G 1.06 | V 1 | A 0.981 | D 1.13 | M 0.914 | R 1.04 | N 1.11 | E 0.969 | T 1.09 | F 1 | W 1.32 | C 1.05 | Q 1.24 | L 1.11 | S 0.93 | I 1.01 | Y 1.49 | K 1.2 | H 1.08
P357: L 1.2 | I 1.11 | M 1.29 | D 0.863 | K 0.713 | G 0.884 | F 1.27 | N 1.32 | H 0.925 | A 1.01 | T 1.1 | R 1.07 | S 0.935 | V 0.974 | W 1.17 | E 1.05 | Q 1.06 | Y 1.34 | C 1.23
P360: Y 1.2 | M 1.19 | D 0.792 | R 1.02 | A 0.888 | T 0.775 | F 1.2 | S 0.994 | L 1.06 | H 1.1 | N 1 | V 0.911 | Q 0.786 | W 1.38 | I 1.13 | K 0.715 | G 1.16 | C 1.08 | E 1.22
P361: K 1.12 | R 0.983 | A 1.01 | S 1.21 | I 1.09 | G 1.21 | W 1.29 | E 0.976 | C 1.27 | M 1.3 | D 1.15 | H 1.14 | N 0.778 | V 1.21 | Y 1.13 | L 1.07 | F 1.18 | T 1.12 | Q 1.18
R356: G 1.06 | S 0.974 | C 1.05 | M 1.16 | A 0.824 | T 0.752 | L 0.928 | H 0.935 | V 0.975 | W 0.964 | I 1.03 | K 0.935 | E 1.09 | N 1.01 | D 1.05 | Y 1.03 | P 0.873 | Q 0.912 | F 1.15
Q349: W 1.55 | Y 1.08 | S 1.26 | T 1.12 | V 1.13
E359: I 1.14 | Q 0.92 | L 1.01 | K 0.82 | G 1.02 | Y 1.11 | F 1.18 | C 1.11 | V 1.08 | D 0.954 | A 0.785
